Data on 1 molecule can be found in CN1421459A.

In assay [1] the target is 人T细胞CD3 (human). Nature of the assay: flow cytometry on human PBMC, unlabelled huGD3 competing with saturating FITC-mGD3; calculated by the formula [X]-[mGD3]=(1/Kx)-(1/Ka).
Assay [2] concerns the target 人T细胞CD3 (human). Nature of the assay: fluorescence staining, flow cytometry, antibody 10 μg/ml; cells not named.
Assay [3] has as its target 人T细胞CD3 (human). The assay is described as follows: fluorescence staining, flow cytometry, antibody 0.1 μg/ml; cells not named. In general terms: Flow cytometry measures light scatter and fluorescence of single cells or particles in a stream.
The target in assay [4] is 人T细胞CD3 (human). Nature of the assay: fluorescence staining, flow cytometry, antibody 1 μg/ml; cells not named.
In assay [5] the target is 人T细胞CD3 (human). Nature of the assay: fluorescence staining and flow cytometry on CD3-positive HPBLL or Jurkat cells, compared with mOKT3 (Fig. 3).
Assay [6] has as its target 人T细胞CD3 (human). Nature of the assay: cell-based or functional assay.

Chain of 人T细胞CD3 (human) (P07766 23-207, chain 1 of 4): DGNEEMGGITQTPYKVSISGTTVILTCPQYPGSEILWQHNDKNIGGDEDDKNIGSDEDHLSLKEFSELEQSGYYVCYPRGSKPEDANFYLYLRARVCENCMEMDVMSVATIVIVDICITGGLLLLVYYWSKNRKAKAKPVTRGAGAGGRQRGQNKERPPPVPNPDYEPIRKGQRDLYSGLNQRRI
Chain of 人T细胞CD3 (human) (P09693 23-182, chain 2 of 4, further chain): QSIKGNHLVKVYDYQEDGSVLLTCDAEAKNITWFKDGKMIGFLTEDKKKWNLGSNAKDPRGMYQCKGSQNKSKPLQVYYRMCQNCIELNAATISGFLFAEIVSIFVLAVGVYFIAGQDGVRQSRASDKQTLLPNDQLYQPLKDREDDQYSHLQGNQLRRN
Chain of 人T细胞CD3 (human) (P04234 22-171, chain 3 of 4, further chain): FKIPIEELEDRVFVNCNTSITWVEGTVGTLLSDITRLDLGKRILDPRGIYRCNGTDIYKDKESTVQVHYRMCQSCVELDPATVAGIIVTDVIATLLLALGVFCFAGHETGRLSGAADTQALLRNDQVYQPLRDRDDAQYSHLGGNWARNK
Chain of 人T细胞CD3 (human) (P20963 22-164, chain 4 of 4, further chain): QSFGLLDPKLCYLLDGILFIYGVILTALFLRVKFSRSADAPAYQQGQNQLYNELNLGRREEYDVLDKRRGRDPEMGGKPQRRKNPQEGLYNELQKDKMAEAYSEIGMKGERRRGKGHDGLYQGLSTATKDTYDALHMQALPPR

B1: 人源化抗体huGD3 (antibody, human IgG1, V domains shown)
VH: QVQLVQSGGGVVQPGRSLRLSCKASGYTFTSYTMHWVRQAPGKGLEWIGYINPSSGYTKYNQKFKDRFTISADNSKSTAFLQMDSLRPEDTAVYYCARWQDYDVYFDYWGQGTPVTVSS
VL: DIVLTQSPSSLSASVGDRVTITCRASSSVSYMHWYQQTPGKAPKPWIYATSNLASGVPSRFSGSGSGTDYTFTISSLQPEDIATYYCQQWSSNPPTFGQGTKLQITR
Regarding B1, in assay [1], the Ka is 1.6e+09 M⁻¹. This molecule also returned an MFI in assay [2] of 97 MFI. For the same molecule, the MFI in assay [3] came to 55 MFI. Besides, in assay [4], the MFI was 76 MFI. Besides, the 亲和力 relative to mOKT3 (orders of magnitude) in assay [5] was 2 数量级. In assay [6], this molecule had a CD3调变(%), antibody 10^1 ng/ml, human PBMC, 37°C 24 h of 13.6%; a CD3调变(%), antibody 10^2 ng/ml, human PBMC, 37°C 24 h of 56.9%; a CD3调变(%), antibody 10^3 ng/ml, human PBMC, 37°C 24 h of 70%; a CD3调变(%), antibody 10^4 ng/ml, human PBMC, 37°C 24 h of 85.4%. In addition, in assay [6], the CD3调变(%), antibody 10^5 ng/ml, human PBMC, 37°C 24 h is 85.6%; the CD3调变(%), antibody 10^-1 ng/ml, human PBMC, 37°C 24 h is 9.52%; the CD3调变(%), antibody column printed '10' (probably 10^0) ng/ml, human PBMC, 37°C 24 h came out at 13.2%.
